Measurements taken from the supplement of paper PMC10724198.
± gives the standard deviation of the averaged measurements.

What follows are sequences tested on Saccharomyces cerevisiae (assay: protein stability index of tFT-peptide fusion (C-terminal peptide) (PSI (0-1 scale)); higher = more stable (slower turnover)). Settings: genetic background: wild type; temperature: 30 C.
Description: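 Multiplexed protein stability (MPS) profiling in S. cerevisiae. Random 12-aa peptides (tFT-X12 library) are fused to the C-terminus of a sfGFP-mCherry tandem fluorescent timer, after mCherry and a GGGS linker. Cells are FACS-sorted into 8 mCherry/sfGFP bins and deep-sequenced. The protein stability index (PSI) is the read-weighted bin average, scaled from 0 (unstable) to 1 (stable). Only peptides with >10 reads are reported; cells were grown at 30 °C in SC-His with glucose.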
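Also: PSI is a weighted mean of sequencing reads over stability bins, variants kept only with over 10 reads, mCherry proximal and sfGFP distal, peptide attached via GGGS linker.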

Sequence | protein stability index
GDGGGCWSGVGW | 0.643 ± 0.1
GDGGGMVEGLSR | 0.66946 ± 0.00014
GDIQRSNNFTIG | 0.779 ± 0.05
GDMKCVTRDSFI | 0.638 ± 0.054
GDMSIWRSNNIT | 0.6723 ± 0.00088
GDRGIKAYGVRG | 0.65 ± 0.015
GDRTIALFFFTI | 0.671 ± 0.024
GDSESRTWCQNL | 0.548 ± 0.02
GDSKTKDEMYKI | 0.6867 ± 0.0045
GDTVLLCDLASC | 0.687 ± 0.0092
GDVLLLVGAGER | 0.706 ± 0.1
GDYGRLINLVTR | 0.6815 ± 0.0059
GEAKAARNKRMI | 0.708 ± 0.024
GEAREEEKKGRW | 0.631 ± 0.027
GEERRGRCGEKQ | 0.597 ± 0.087
GEGGEGWGCFSF | 0.677 ± 0.021
GEGKAGGESEEP | 0.62 ± 0.068
GEGRAAGEIGGV | 0.707 ± 0.033
GEGRRYVVVTEG | 0.693 ± 0.035
GEGVRGGEWGLD | 0.717 ± 0.053
GEKKKAILGKRK | 0.62 ± 0.011
GEQLNWSREPWY | 0.735 ± 0.038
GERKRQQRKREE | 0.707 ± 0.064
GERLGEWGGGVG | 0.669 ± 0.0093
GESGGGAVGGGW | 0.64 ± 0.039

Sequence | protein stability index
GEVRHCRVTVIA | 0.539 ± 0.036
GFALVVGNLISF | 0.636 ± 0.021
GFATCSFPVCRV | 0.661 ± 0.027
GFCSGGVFVEWV | 0.754 ± 0.065
GFGKRGKDQDTY | 0.595 ± 0.033
GFGSSSFLCFSR | 0.669 ± 0.042
GFHCRLRVSTFG | 0.585 ± 0.019
GFLCFRWACVRL | 0.487 ± 0.028
GFLWLLGGVLGV | 0.658 ± 0.082
GFRVRCSICGSA | 0.681 ± 0.073
GFTVVGCSYVTT | 0.5572 ± 0.0023
GFYPGRSKGCLG | 0.73 ± 0.05
GGAGLGVVLGWW | 0.6833 ± 0.0062
GGAGSFVEKEID | 0.69 ± 0.044
GGALDQADGGRS | 0.7269 ± 0.0014
GGALFVCSSVGR | 0.681 ± 0.033
GGALLGGGAMGL | 0.643 ± 0.037
GGARGDEGGGSA | 0.761 ± 0.055
GGAWGHCSHEWS | 0.6882 ± 0.0052
GGCAAGVGRLAV | 0.624 ± 0.075
GGCCGRVWGSVE | 0.71 ± 0.054
GGCEGIRAVGWV | 0.716 ± 0.04
GGCEWWSWGRGG | 0.729 ± 0.041
GGCGGGGGVVVR | 0.7029 ± 0.0021
GGCNLLGRGPDF | 0.694 ± 0.024

Sequence | protein stability index
GGCQCFSFPWPP | 0.712 ± 0.087
GGEGRGAFWGGE | 0.68361 ± 0.0002
GGEYVGGRGCGL | 0.682 ± 0.1
GGFASGLCGGVI | 0.728 ± 0.087
GGFGVARVLYGL | 0.712 ± 0.035
GGGAGGEAVRVW | 0.655 ± 0.025
GGGARFGLGGRM | 0.675 ± 0.027
GGGGAGFRGGIE | 0.68 ± 0.0019
GGGGAGGRRGTQ | 0.654 ± 0.0077
GGGGCRVRGLGA | 0.684 ± 0.041
GGGGEVRAWGLR | 0.71 ± 0.032
GGGGGGGGCGVI | 0.77 ± 0.08
GGGGGGGGRARE | 0.707 ± 0.09
GGGGGGGLGGAF | 0.717 ± 0.026
GGGGGGGVGMMW | 0.738 ± 0.02
GGGGGGRLEGGA | 0.66 ± 0.07
GGGGGGVRVARW | 0.687 ± 0.07
GGGGGGVSLGGR | 0.696 ± 0.072
GGGGGSRGVCLG | 0.656 ± 0.063
GGGGGVCGACVV | 0.685 ± 0.016
GGGGRGTAVVGV | 0.66 ± 0.048
GGGGRGVGAGGG | 0.652 ± 0.061
GGGGSAGAGGGG | 0.6221 ± 0.0061
GGGIGWRAGEFG | 0.673 ± 0.0016
GGGRGGGEWVGG | 0.651 ± 0.043

Sequence | protein stability index
GGGRGRWGPEGE | 0.6902 ± 0.0043
GGGRGTGVEFGA | 0.7 ± 0.03
GGGRGVGCMGCR | 0.688 ± 0.015
GGGRPDRPQRAI | 0.741 ± 0.026
GGGRRRVAGREL | 0.701 ± 0.048
GGGRWGAGVKGV | 0.645 ± 0.028
GGGRYCADDGGR | 0.763 ± 0.051
GGGSLWWDVGYG | 0.6649 ± 0.0016
GGGTLGQWCCDV | 0.6835 ± 0.0029
GGGVGCRSRGAG | 0.595 ± 0.025
GGGVLLRGGSGP | 0.716 ± 0.053
GGGVWYFSWSFC | 0.595 ± 0.045
GGGWGRAYSWWV | 0.705 ± 0.012
GGGWSGRGVGDR | 0.727 ± 0.078
GGGYHLGSCDKL | 0.624 ± 0.025
GGHAAMGRRGRE | 0.73 ± 0.14
GGIRGITSRQPP | 0.576 ± 0.019
GGIVGVSWLVRS | 0.657 ± 0.03
GGLEVDWVGCGV | 0.701 ± 0.012
GGLGSHWDCDGL | 0.734 ± 0.093
GGLGVYQWVDSV | 0.663 ± 0.02
GGLIWRHGVGRG | 0.692 ± 0.018
GGLRPLFLCCLF | 0.569 ± 0.05
GGLSGSRCTLFW | 0.7342 ± 0.0069
GGLVWEESAGVR | 0.7091 ± 0.0016

Sequence | protein stability index
GGNMPNNCWSRI | 0.698 ± 0.022
GGNSRASAVKGA | 0.702 ± 0.1
GGNTQTNYHGCL | 0.73227 ± 0.00035
GGPAWGRGGMYW | 0.678 ± 0.034
GGPGWGVSGWEG | 0.705 ± 0.015
GGRAWRWVARVG | 0.673 ± 0.045
GGRCAERSDWCG | 0.647 ± 0.016
GGRCGSVGRGGA | 0.735 ± 0.065
GGRFGLGGRLVG | 0.658 ± 0.05
GGRFPGGGGRRR | 0.583 ± 0.06
GGRGSAWRWRRG | 0.674 ± 0.014
GGRLLLLVGFRV | 0.583 ± 0.0066
GGRPVGRRRPGA | 0.671 ± 0.031
GGRQTAVSGLLL | 0.685 ± 0.017
GGRSGVSGVVAG | 0.7021 ± 0.0049
GGRVKPRGVGVG | 0.648 ± 0.016
GGRVPRCRTVLL | 0.681 ± 0.033
GGSGGGRRGVGR | 0.656 ± 0.0095
GGSGLRCCREMG | 0.681 ± 0.022
GGSLPAHPRNPL | 0.701 ± 0.027
GGSRGGTFLWGP | 0.672 ± 0.036
GGSTAKGRPMDT | 0.645 ± 0.0067
GGTEGSGWSGGG | 0.638 ± 0.029
GGTGGRLGVGHV | 0.704 ± 0.073
GGTGRGGEMGGR | 0.7428 ± 0.0069

Sequence | protein stability index
GGTGRVGEMGGR | 0.755 ± 0.034
GGTWVLGWGLGV | 0.714 ± 0.4
GGVCVGSFLFDR | 0.702 ± 0.029
GGVEVAQGVVWC | 0.715 ± 0.066
GGVGGGRAGVWG | 0.681 ± 0.021
GGVGGPGLDGWK | 0.676 ± 0.059
GGVLAGEWGAGL | 0.624 ± 0.051
GGVSGQLLRSHG | 0.682 ± 0.0027
GGVSVVTRVAPR | 0.658 ± 0.016
GGVVLDEEVGCG | 0.614 ± 0.06
GGWGCGGWGFVG | 0.58568 ± 0.00052
GGWGGGGGAWSG | 0.71 ± 0.041
GGWGWRSGTEGE | 0.665 ± 0.012
GGWHVVGGAGVG | 0.564 ± 0.01
GGWWGGLGCFMV | 0.699 ± 0.034
GGYGGGWRGGGR | 0.626 ± 0.077
GGYRFCSKYKSE | 0.673 ± 0.023
GGYYIFGLCDLL | 0.625 ± 0.075
GHAYKYVDSFRR | 0.654 ± 0.044
GHGGHIVRTSSY | 0.7 ± 0.023
GHLGLFEEETGG | 0.711 ± 0.053
GHRLSMCLGFGK | 0.63 ± 0.01
GHVCTRCVWPRV | 0.606 ± 0.055
GIDARGLYGGAL | 0.66 ± 0.032
GIGCMVYKGGFQ | 0.6977 ± 0.0011

Sequence | protein stability index
GIGYVTPLSRVL | 0.72 ± 0.038
GIKKNQVSIRYI | 0.606 ± 0.03
GIKMTWTNGQHF | 0.6909 ± 0.0054
GILFFLQLCACS | 0.7014 ± 0.0064
GILNIRKALDGK | 0.6477 ± 0.0026
GIPCRCVCLNQW | 0.6961 ± 0.0017
GIPIQKLEYMCK | 0.669 ± 0.019
GIPPVLFAPPPL | 0.696 ± 0.022
GIQSGGGGGKGG | 0.668 ± 0.015
GIRGECEFHSCD | 0.685 ± 0.015
GIRKRIEKKKIK | 0.7 ± 0.051
GISGGTVSILGV | 0.704 ± 0.0096
GKAIKRPIGIRG | 0.683 ± 0.019
GKALPALPSGLL | 0.657 ± 0.025
GKECLIRKSHDG | 0.674 ± 0.011
GKEKGRAEGRDG | 0.701 ± 0.023
GKILKGAASPSC | 0.72 ± 0.019
GKITKNKDNIET | 0.686 ± 0.021
GKKGKEKGEEKR | 0.716 ± 0.028
GKKKHRSNPRRS | 0.725 ± 0.067
GKKKIDDKGRWI | 0.678 ± 0.14
GKNAEENNIVRE | 0.614 ± 0.083
GKNKRKTYGKRE | 0.722 ± 0.035
GKQKKKHRRNLK | 0.743 ± 0.12
GKQNQEKNKKTS | 0.696 ± 0.045

Sequence | protein stability index
GKRGRDYIKVRE | 0.6448 ± 0.006
GKRTVLFTRCRQ | 0.5888 ± 0.0055
GKTRKGKKRKRK | 0.666 ± 0.14
GKTRLIEDTQTT | 0.67 ± 0.019
GKVCVLKLSPWI | 0.814 ± 0.16
GKVGSLGLVLSP | 0.682 ± 0.096
GLAFVGWGPRFR | 0.71 ± 0.028
GLAYPAGALSLL | 0.684 ± 0.1
GLCGVCVLKFPR | 0.759 ± 0.15
GLCLLSKDGCLV | 0.669 ± 0.055
GLCRLLEILKLR | 0.63 ± 0.054
GLCSMRLYKPRI | 0.634 ± 0.014
GLEIGMSQVSMG | 0.645 ± 0.036
GLEVGVRGVMGC | 0.688 ± 0.033
GLGGPLSLVYLF | 0.629 ± 0.037
GLGLASSGWGRG | 0.733 ± 0.018
GLGLVSWEAGGG | 0.702 ± 0.017
GLGSSVLQVGVR | 0.689 ± 0.056
GLGVPCDFRVVA | 0.694 ± 0.013
GLGVSLLVGGEA | 0.6572 ± 0.0028
GLQFDPALPLPP | 0.739 ± 0.022
